# Assay results reported in paper PMC9482650, “Quantitative fragmentomics allow affinity mapping of interactomes” (Nature Communications, 2022).
# T1: GRIP1_3, Q9Y3R0
# T1 sequence (Q9Y3R0 247-346, limits assumed, looked up): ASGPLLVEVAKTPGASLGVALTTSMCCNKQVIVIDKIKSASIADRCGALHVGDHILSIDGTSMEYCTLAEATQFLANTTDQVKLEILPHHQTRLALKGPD
# T2: NHERF3_3, Q5T2W1
# T2 sequence (Q5T2W1 238-333, limits assumed, looked up): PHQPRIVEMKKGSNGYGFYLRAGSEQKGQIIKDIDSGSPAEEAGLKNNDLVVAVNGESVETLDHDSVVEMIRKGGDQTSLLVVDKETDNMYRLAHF
# T3: MPP7, Q5T2T1
# T3 sequence (Q5T2T1 134-230, limits assumed, looked up): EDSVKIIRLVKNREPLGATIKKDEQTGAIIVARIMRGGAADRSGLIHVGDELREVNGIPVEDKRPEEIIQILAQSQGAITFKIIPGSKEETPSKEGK
# T4: TX1BP3, O14907
# T4 sequence (O14907 10-122, limits assumed, looked up): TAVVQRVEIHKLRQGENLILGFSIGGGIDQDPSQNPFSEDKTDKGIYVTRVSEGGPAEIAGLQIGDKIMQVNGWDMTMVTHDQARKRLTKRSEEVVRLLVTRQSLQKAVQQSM
# T5: RHPN1, Q8TCX5
# T5 sequence (Q8TCX5 508-602, limits assumed, looked up): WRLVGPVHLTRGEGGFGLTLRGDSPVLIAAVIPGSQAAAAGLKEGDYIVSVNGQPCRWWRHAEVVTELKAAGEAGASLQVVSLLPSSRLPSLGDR
# T6: NHERF3_4, Q5T2W1
# T6 sequence (Q5T2W1 373-468, limits assumed, looked up): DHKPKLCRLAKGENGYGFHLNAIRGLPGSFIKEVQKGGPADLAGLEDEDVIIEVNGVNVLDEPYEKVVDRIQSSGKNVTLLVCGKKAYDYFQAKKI
# T7: PCLO, Q9Y6V0
# T7 sequence (Q9Y6V0 4491-4600, limits assumed, looked up): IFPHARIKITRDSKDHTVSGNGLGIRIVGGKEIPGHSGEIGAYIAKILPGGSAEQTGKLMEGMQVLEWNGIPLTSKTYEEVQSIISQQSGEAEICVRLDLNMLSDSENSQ
# T8: LRRC7, Q96NW7
# T8 sequence (Q96NW7 1440-1537, limits assumed, looked up): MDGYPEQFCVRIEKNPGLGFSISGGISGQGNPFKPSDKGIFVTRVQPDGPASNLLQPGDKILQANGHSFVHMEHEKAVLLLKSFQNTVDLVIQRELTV
# T9: DVL3, Q92997
# T9 sequence (Q92997 244-331, limits assumed, looked up): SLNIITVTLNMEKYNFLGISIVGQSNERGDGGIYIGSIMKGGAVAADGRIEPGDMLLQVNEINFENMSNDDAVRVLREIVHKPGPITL
# T10: SNTA1, Q13424
# T10 sequence (Q13424 82-180, limits assumed, looked up): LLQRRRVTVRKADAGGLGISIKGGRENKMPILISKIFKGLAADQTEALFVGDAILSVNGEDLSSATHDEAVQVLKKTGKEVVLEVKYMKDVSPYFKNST
# T11: GRIP1_7, Q9Y3R0
# T11 sequence (Q9Y3R0 999-1096, limits assumed, looked up): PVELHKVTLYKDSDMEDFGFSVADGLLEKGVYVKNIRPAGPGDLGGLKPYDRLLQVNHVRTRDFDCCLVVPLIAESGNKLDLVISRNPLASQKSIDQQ
# T12: DLG3_1, Q92796
# T12 sequence (Q92796 125-227, limits assumed, looked up): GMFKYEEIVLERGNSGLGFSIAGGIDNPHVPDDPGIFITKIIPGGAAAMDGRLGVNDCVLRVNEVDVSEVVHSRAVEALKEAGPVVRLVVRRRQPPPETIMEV
# T13: SYNJ2BP, P57105
# T13 sequence (P57105 8-110, limits assumed, looked up): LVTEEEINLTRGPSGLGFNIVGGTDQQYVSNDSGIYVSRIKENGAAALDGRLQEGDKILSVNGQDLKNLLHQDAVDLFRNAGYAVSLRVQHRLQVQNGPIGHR
# Columns and labels:
# Experiment in all cases: holdup assay
# Design in all cases: key: below the threshold = too weak to quantify, mostly under pKd 3.1 to 4
# Settings in all cases: plain residues with an end cap or a label only (N-terminal biotin on a linker: ado-ado)
# MAST1, Q9Y2H9 = biological target: MAST1, Q9Y2H9
# Chain of MAST1, Q9Y2H9 (Q9Y2H9 962-1065): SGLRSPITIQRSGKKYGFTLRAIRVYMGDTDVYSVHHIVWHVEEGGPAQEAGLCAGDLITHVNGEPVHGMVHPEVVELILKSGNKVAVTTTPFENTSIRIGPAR
# GRIP1_3, Q9Y3R0 = biological target: T1, GRIP1_3, Q9Y3R0
# NHERF3_3, Q5T2W1 = biological target: T2, NHERF3_3, Q5T2W1
# MPP7, Q5T2T1 = biological target: T3, MPP7, Q5T2T1
# TX1BP3, O14907 = biological target: T4, TX1BP3, O14907
# DLG1_3, Q12959 = biological target: DLG1_3, Q12959
# Chain of DLG1_3, Q12959 (Q12959 457-571): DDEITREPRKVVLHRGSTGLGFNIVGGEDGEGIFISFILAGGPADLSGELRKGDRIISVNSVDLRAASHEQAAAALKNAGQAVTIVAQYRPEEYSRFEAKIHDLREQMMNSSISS
# RHPN1, Q8TCX5 = biological target: T5, RHPN1, Q8TCX5
# HTRA1, Q92743 = biological target: HTRA1, Q92743
# Chain of HTRA1, Q92743 (Q92743 360-477): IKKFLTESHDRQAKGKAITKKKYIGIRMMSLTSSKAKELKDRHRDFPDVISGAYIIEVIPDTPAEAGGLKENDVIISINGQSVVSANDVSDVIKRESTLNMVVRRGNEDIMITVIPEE
# MAGI2_4, Q86UL8 = biological target: MAGI2_4, Q86UL8
# Chain of MAGI2_4, Q86UL8 (Q86UL8 772-865): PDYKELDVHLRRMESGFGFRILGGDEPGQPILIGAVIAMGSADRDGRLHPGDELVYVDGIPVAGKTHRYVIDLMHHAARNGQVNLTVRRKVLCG
# Inadl_5, Q8NI35 = biological target: Inadl_5, Q8NI35
# Chain of Inadl_5, Q8NI35 (Q8NI35 673-780): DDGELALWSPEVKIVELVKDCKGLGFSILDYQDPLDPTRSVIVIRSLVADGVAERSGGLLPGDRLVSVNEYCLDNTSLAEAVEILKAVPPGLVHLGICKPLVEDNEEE
# GRID2IP_2, A4D2P6 = biological target: GRID2IP_2, A4D2P6
# Chain of GRID2IP_2, A4D2P6 (A4D2P6 272-370): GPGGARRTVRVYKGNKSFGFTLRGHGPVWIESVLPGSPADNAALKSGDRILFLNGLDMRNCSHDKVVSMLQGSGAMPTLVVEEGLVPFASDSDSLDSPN
# PDZRN4_1, Q6ZMN7 = biological target: PDZRN4_1, Q6ZMN7
# Chain of PDZRN4_1, Q6ZMN7 (Q6ZMN7 213-318): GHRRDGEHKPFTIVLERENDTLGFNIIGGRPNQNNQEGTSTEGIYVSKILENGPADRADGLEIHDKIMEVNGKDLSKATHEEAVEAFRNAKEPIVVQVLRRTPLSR
# NHERF3_4, Q5T2W1 = biological target: T6, NHERF3_4, Q5T2W1
# PCLO, Q9Y6V0 = biological target: T7, PCLO, Q9Y6V0
# LRRC7, Q96NW7 = biological target: T8, LRRC7, Q96NW7
# DLG2_3, Q15700 = biological target: DLG2_3, Q15700
# DVL3, Q92997 = biological target: T9, DVL3, Q92997
# GRIP2_7, Q9C0E4 = biological target: GRIP2_7, Q9C0E4
# Chain of GRIP2_7, Q9C0E4 (Q9C0E4 934-1023): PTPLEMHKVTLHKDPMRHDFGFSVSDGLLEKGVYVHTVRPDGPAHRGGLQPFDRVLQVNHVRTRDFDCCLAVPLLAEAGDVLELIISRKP
# SNTA1, Q13424 = biological target: T10, SNTA1, Q13424
# GRIP1_7, Q9Y3R0 = biological target: T11, GRIP1_7, Q9Y3R0
# DLG3_1, Q92796 = biological target: T12, DLG3_1, Q92796
# LIMK2, P53671 = biological target: LIMK2, P53671
# Chain of LIMK2, P53671 (P53671 143-248): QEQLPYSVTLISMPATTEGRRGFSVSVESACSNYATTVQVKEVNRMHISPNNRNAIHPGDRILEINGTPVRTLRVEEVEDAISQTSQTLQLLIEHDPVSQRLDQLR
# SYNJ2BP, P57105 = biological target: T13, SYNJ2BP, P57105
Binder,"pKd (MAST1, Q9Y2H9)","pKd (GRIP1_3, Q9Y3R0)","pKd (NHERF3_3, Q5T2W1)","pKd (MPP7, Q5T2T1)","pKd (TX1BP3, O14907)","pKd (DLG1_3, Q12959)","pKd (RHPN1, Q8TCX5)","pKd (HTRA1, Q92743)","pKd (MAGI2_4, Q86UL8)","pKd (Inadl_5, Q8NI35)","pKd (GRID2IP_2, A4D2P6)","pKd (PDZRN4_1, Q6ZMN7)","pKd (NHERF3_4, Q5T2W1)","pKd (PCLO, Q9Y6V0)","pKd (LRRC7, Q96NW7)","pKd (DLG2_3, Q15700)","pKd (DVL3, Q92997)","pKd (GRIP2_7, Q9C0E4)","pKd (SNTA1, Q13424)","pKd (GRIP1_7, Q9Y3R0)",other results
"TNSKQGETTV [FZD1, Q9UP38]",4.32,below the threshold,below the threshold,below the threshold,4.17,4.13,4.14,4.34,4.13,3.5,3.79,4.06,below the threshold,below the threshold,below the threshold,3.77,3.61,below the threshold,4.51,below the threshold,"pKd (DLG3_1, Q92796): 4.37; pKd (LIMK2, P53671): below the threshold; pKd (SYNJ2BP, P57105): 4.7"
"TFSRRPKTRV [CD226, Q15762]",4.24,below the threshold,3.63,below the threshold,below the threshold,below the threshold,below the threshold,below the threshold,below the threshold,below the threshold,4.16,below the threshold,below the threshold,below the threshold,below the threshold,3.88,below the threshold,below the threshold,3.79,below the threshold,"pKd (DLG3_1, Q92796): below the threshold; pKd (LIMK2, P53671): below the threshold; pKd (SYNJ2BP, P57105): below the threshold"
"AKADAQESRL [PLCB2, Q00722]",4.85,below the threshold,3.85,below the threshold,3.96,below the threshold,4.53,below the threshold,below the threshold,below the threshold,3.86,4.5,below the threshold,below the threshold,below the threshold,below the threshold,below the threshold,below the threshold,4.2,below the threshold,"pKd (DLG3_1, Q92796): below the threshold; pKd (LIMK2, P53671): below the threshold; pKd (SYNJ2BP, P57105): 3.97"
"THHRKIHTRV [ZNF599, Q96NL3]",4.48,below the threshold,below the threshold,below the threshold,3.74,4.15,4,3.67,below the threshold,3.49,3.8,below the threshold,3.55,below the threshold,below the threshold,4.41,below the threshold,3.66,4.3,below the threshold,"pKd (DLG3_1, Q92796): 4.48; pKd (LIMK2, P53671): below the threshold; pKd (SYNJ2BP, P57105): 4.32"
"VISSDDLTEL [CAPN6, Q9Y6Q1]",4.99,below the threshold,below the threshold,below the threshold,below the threshold,below the threshold,4.5,4.55,below the threshold,below the threshold,4.34,below the threshold,below the threshold,below the threshold,below the threshold,3.53,below the threshold,below the threshold,below the threshold,below the threshold,"pKd (DLG3_1, Q92796): below the threshold; pKd (LIMK2, P53671): below the threshold; pKd (SYNJ2BP, P57105): below the threshold"
"RGKNRRQSIF [CDK18, Q07002]",4.15,below the threshold,below the threshold,below the threshold,below the threshold,3.71,3.58,4,below the threshold,below the threshold,below the threshold,below the threshold,below the threshold,below the threshold,below the threshold,4.11,below the threshold,below the threshold,below the threshold,below the threshold,"pKd (DLG3_1, Q92796): below the threshold; pKd (LIMK2, P53671): below the threshold; pKd (SYNJ2BP, P57105): below the threshold"
